The target in the experiment is His6-Ku70-tRFP (human) (UniProt P12956). As to the kind of experiment: SDS-PAGE without heat denaturation, fluorescence in the gel; samples not denatured at 94 °C; bands of His6-Ku70-tRFP seen by tRFP fluorescence.

This is an account of results in paper PMC7563236.

The stoichiometry N is a count of units in the complex or per binding partner. As to “His6-Ku70-tRFP (from UniProt P12956 1-609) (natural protein)”, the stoichiometry N is 2.
